Patent publication US20080280828A1 (NATURAL ENVIRONMENT RESEARCH COUNCIL, published 2008)

What was measured:
human IgE (Serotech) = human IgE (Serotech) (human); test: SPR (BIAcore 2000), human IgE against guinea pig IgG on the same chip
[1] = molecular target: T1, human IgG Fc fragment (ICN) (human); test: SPR (BIAcore 2000), human Fc immobilised, rIGBPMA 1 mg/ml as analyte
T1 construct: domain: Fc fragment; also called human Fc fragment; Fc (human) fragment

B1: recombinant IGBPMA (rIGBPMA), N-terminal 26 amino acid truncated, C-terminal 6-His-tag, expressed in (other)
chain: YEVYTGRGVTITVDNTQYEIPADLEKIFQKPKGFSVGSLLVALQEKGIPVNVDEKTGVILGITIDKVRVPFPVSIDLRFKLDNQIYLIPRDLAKLITVLEKKGMPSKILFILYTRYGVVPVRDSNGIVVAISFNGKQFKVKPEPLTAVVILGQKFILPRDTRKMVEFVHSKQSHPEIGFIFLKALKSAGFMLINDDDGAMRSIQKGAQIIKLGFEIRIQVIYGKTTYHVPKDLMRLVKDVRSLGPQEIQSVMKQLKAFDVQVKKEGSKLTILFNSVRYEVDLKSGNVKGHHHHHH
notes: also called soluble rIGBPMA; Clone No. F6
B1 was tested, and the “fold of binding signal against IgG” value (human IgE (Serotech)) was 2 fold and the “fold of binding over non-specific binding (BSA, F(ab)2)” value [1] was 2 fold.
